Results reported in paper PMC12062419 (2025).

Target: T1, human migfilin (residues 1-85) Ser12His (human, UniProt Q8WUP2 1-85, Ser12His)
T1 sequence: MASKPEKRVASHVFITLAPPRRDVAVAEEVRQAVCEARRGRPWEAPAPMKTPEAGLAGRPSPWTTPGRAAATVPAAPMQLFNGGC
Assay: NMR

B1: GST-tagged human filamin A domain 21 (FLNa21) labelled with 4-trifluoromethyl-L-phenylalanine at position 2274 (domain or fragment)
chain: GGAHKVRAGGPGLERAEAGVPAEFSIWTREAGAGGLAIFVEGPSKAEISFEDRKDGSCGVAYVVQEPGDYEVSVKFNEEHIPDSPFVVPVASP
modifications: 4-trifluoromethyl-L-phenylalanine (tfmF) at position 2274
B1 was tested, and the Kd was 4.9 µM.
